Measurements taken from patent US9127040B2, “Regulation of sodium channels by PLUNC proteins” (The University of North Carolina at Chapel Hill, priority 2011, dated 2015).

Target: T1, αβγENaC (Rattus norvegicus, UniProt P37089+P37090+P37091, R138K/R205K/R231K)
T1 construct: expressed in transfected cells; host or cells: Xenopus laevis oocytes (cRNA injection)
T1 sequence (P37089 1-698 R205K/R231K): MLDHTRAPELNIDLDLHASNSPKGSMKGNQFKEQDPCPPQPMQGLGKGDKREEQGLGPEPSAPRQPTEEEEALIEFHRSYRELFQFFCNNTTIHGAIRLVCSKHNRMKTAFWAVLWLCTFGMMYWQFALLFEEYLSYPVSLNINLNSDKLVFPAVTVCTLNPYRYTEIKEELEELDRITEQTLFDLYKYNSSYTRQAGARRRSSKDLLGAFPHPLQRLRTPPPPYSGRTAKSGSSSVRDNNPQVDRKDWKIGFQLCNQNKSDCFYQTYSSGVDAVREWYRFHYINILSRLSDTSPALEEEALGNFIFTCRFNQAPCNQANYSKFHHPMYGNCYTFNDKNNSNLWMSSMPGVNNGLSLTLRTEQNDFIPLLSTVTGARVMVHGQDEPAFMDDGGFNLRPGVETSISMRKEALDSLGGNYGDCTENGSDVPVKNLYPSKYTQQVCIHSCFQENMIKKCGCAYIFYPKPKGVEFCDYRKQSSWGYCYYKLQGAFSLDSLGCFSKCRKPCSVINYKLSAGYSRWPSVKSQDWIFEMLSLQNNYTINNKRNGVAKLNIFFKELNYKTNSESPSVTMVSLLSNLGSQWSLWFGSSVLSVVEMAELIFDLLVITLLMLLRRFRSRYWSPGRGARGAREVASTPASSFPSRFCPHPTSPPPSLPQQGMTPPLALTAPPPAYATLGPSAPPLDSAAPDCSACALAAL
T1 sequence (P37090 1-638): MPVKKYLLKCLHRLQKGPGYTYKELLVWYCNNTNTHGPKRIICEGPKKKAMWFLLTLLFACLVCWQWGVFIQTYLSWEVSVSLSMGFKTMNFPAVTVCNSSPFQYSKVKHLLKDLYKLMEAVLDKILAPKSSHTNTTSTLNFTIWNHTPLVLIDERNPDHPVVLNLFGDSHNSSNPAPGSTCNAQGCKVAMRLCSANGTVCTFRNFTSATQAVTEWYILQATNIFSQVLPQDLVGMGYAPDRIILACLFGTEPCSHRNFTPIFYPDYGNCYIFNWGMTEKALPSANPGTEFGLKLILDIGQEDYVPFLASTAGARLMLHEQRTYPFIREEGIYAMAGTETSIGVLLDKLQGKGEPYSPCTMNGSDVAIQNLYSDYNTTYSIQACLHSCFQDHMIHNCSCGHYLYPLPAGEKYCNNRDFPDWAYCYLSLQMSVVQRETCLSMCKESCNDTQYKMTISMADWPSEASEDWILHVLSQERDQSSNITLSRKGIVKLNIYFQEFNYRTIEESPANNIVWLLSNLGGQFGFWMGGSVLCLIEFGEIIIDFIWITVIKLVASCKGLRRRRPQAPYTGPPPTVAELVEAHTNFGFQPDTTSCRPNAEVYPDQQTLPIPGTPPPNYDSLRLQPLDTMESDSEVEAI
T1 sequence (P37091 1-650 R138K): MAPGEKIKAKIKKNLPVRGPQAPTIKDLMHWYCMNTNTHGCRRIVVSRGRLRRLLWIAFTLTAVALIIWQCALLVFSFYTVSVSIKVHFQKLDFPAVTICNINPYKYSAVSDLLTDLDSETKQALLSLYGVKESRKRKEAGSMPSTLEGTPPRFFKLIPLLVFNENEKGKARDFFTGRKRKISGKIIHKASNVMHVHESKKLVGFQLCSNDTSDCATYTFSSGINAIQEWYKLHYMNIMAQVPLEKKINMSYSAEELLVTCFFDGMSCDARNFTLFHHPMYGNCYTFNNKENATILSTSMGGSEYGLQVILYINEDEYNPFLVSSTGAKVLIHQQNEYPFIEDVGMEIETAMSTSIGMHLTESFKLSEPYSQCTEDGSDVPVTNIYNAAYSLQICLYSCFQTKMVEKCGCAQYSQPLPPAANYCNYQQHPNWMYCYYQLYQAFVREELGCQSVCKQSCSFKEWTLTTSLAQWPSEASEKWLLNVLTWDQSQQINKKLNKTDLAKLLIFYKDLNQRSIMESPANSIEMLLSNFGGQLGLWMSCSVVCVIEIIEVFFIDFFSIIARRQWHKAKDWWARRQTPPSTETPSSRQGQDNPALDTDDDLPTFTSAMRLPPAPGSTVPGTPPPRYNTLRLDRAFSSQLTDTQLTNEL
Assay: Amiloride-sensitive whole cell current, two electrode voltage clamp, Xenopus laevis oocytes expressing αβγENaC
Type: cell-based
Conditions: SPLUNC1 co-expressed

B1: SPLUNC1: human SPLUNC1 (SEQ ID NO:1), 256 amino acid secreted PLUNC family protein; rSPLUNC1 is the purified V5/6His-tagged recombinant form (protein, listed as Homo sapiens)
chain: MFQTGGLIVFYGLLAQTMAQFGGLPVPLDQTLPLNVNPALPLSPTGLAGSLTNALSNGLLSGGLLGILENLPLLDILKPGGGTSGGLLGGLLGKVTSVIPGLNNIIDIKVTDPQLLELGLVQSPDGHRLYVTIPLGIKLQVNTPLVGASLLRLAVKLDITAEILAVRDKQERIHLVLGDCTHSPGSLQISLLDGLGPLPIQGLLDSLTGILNKVLPELVQGNVCPLVNEVLRGLDITLVHDIVNMLIHGLQFVIKV
modifications: V5/6His tag in recombinant form
notes: rSPLUNC1 is the purified V5/6His-tagged recombinant form
  current of furin-insensitive αR205,231K,β,γR138K ENaC mutant: also inhibited
